Patent publication US20030068675, “Position dependent recognition of GNN nucleotide triplets by zinc fingers” (published 2003)
Positions count from the first letter of the chain named.

How the values were obtained:
Assay in all cases: EMSA
Details in all cases: tags: MBP fusion
[1] = target: ZFP SBS#773 (synthetic)
How it was run: (§1)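 Purified ZFP was titrated against labeled double-stranded target (1 nM or lower, at least 10-fold below expected Kd) carrying the natural binding site with flanks. Binding buffer was 10 mM Tris pH 7.5, 100 mM KCl, 1 mM MgCl2, 0.1 mM ZnCl2, 5 mM DTT, 10% glycerol, 0.02% BSA, with equilibration for at least 45 min. Bound and free target were separated on a 10% polyacrylamide gel.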

[2] = target: T1, ZFP SBS#774 (synthetic)
T1 chain: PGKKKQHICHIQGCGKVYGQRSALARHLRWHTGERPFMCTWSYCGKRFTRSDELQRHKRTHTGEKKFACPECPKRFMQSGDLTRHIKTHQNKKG
How it was run: as §1

[3] = target: T2, ZFP SBS#805 (synthetic)
T2 chain: T1 chain with D81S
How it was run: as §1

[4] = target: T3, ZFP SBS#775 (synthetic)
T3 chain: T1 chain with R21S, S22G, A25T
How it was run: as §1

[5] = target: T4, ZFP SBS#849 (synthetic)
T4 chain: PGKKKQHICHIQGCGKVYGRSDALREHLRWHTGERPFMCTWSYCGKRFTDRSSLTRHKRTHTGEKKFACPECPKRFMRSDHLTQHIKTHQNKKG
How it was run: as §1

[6] = target: T5, ZFP SBS#837 (synthetic)
T5 chain: T4 chain with T83S, Q84R
How it was run: as §1

[7] = target: T6, ZFP SBS#838 (synthetic)
T6 chain: T4 chain with Q84A
How it was run: as §1

[8] = target: T7, ZFP SBS#841 (synthetic)
T7 chain: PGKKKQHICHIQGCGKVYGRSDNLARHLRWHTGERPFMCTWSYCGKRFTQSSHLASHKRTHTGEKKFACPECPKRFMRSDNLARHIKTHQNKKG
How it was run: as §1

[9] = target: T8, ZFP SBS#839 (synthetic)
T8 chain: T7 chain with Q50T, S52D
How it was run: as §1

[10] = target: T9, ZFP SBS#840 (synthetic)
T9 chain: T7 chain with Q50M, S52H, A55K, S56T
How it was run: as §1

[11] = target: ZFP SBS#830 (synthetic)
How it was run: as §1

[12] = target: ZFP SBS#831 (synthetic)
How it was run: as §1

[13] = target: ZFP SBS#768 (synthetic)
How it was run: as §1

[14] = target: ZFP SBS#799 (synthetic)
How it was run: as §1

[15] = target: ZFP SBS#767 (synthetic, UniProt P08047)
How it was run: as §1

[16] = target: ZFP SBS#798 (synthetic, UniProt P08047)
How it was run: as §1

[17] = target: ZFP SBS#763 (synthetic)
How it was run: as §1

[18] = target: ZFP SBS#681 (synthetic)
How it was run: as §1

[19] = target: T10, ZFP SBS#683 (synthetic)
T10 chain: T1 chain with R21S, S22G, A23H, R50Q, D52G, E53S, Q55T, G80S, T83S
How it was run: as §1

[20] = target: ZFP SBS#684 (synthetic)
How it was run: as §1

[21] = target: ZFP SBS#685 (synthetic)
How it was run: as §1

[22] = target: ZFP SBS#682 (synthetic)
How it was run: as §1

[23] = target: T11, ZFP SBS#832 (synthetic)
T11 chain: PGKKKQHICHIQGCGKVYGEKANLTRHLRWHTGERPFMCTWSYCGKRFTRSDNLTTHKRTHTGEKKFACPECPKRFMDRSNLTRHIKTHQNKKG
How it was run: as §1

[24] = target: T12, ZFP SBS#833 (synthetic)
T12 chain: T11 chain with T56K
How it was run: as §1

[25] = target: T13, ZFP SBS#834 (synthetic)
T13 chain: T11 chain with N53H
How it was run: as §1

[26] = target: T14, ZFP SBS#797 (synthetic)
T14 chain: T1 chain with R21S, A23D, A25Q, E53N, Q55A
How it was run: as §1

[27] = target: ZFP SBS#764 (synthetic)
How it was run: as §1

[28] = target: ZFP SBS#844 (synthetic)
How it was run: as §1

[29] = target: T15, ZFP SBS#846 (synthetic)
T15 chain: T7 chain with R20Q, D22S, A25Q, Q50R, S51R, S52D, H53V, A55M, S56N, A83Q
How it was run: as §1

[30] = target: T16, ZFP SBS#851 (synthetic)
T16 chain: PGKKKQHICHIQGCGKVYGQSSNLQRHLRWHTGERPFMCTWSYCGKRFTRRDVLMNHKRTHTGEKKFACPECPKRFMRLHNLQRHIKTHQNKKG
How it was run: as §1

[31] = target: ZFP SBS#845 (synthetic)
How it was run: as §1

[32] = target: ZFP SBS#253 (synthetic)
How it was run: as §1

[33] = target: T17, ZFP SBS#766 (synthetic)
T17 chain: T11 chain with K21R, A22G, N23T, T25A, T55A, T56R, N81D
How it was run: as §1

[34] = target: T18, ZFP SBS#765 (synthetic)
T18 chain: T1 chain with Q20E, S22G, A23T, E53N, Q55A, Q78E, S79R, D81T, T83A
How it was run: as §1

[35] = target: T19, ZFP SBS#800 (synthetic)
T19 chain: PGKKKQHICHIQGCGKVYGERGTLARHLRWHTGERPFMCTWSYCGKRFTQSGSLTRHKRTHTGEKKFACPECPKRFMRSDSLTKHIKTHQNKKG
How it was run: as §1

[36] = target: T20, ZFP SBS#770 (synthetic)
T20 chain: T19 chain with E20D, G22S, T23S, A25T
How it was run: as §1

Chain of ZFP SBS#831 (synthetic) (chain, as listed by the source): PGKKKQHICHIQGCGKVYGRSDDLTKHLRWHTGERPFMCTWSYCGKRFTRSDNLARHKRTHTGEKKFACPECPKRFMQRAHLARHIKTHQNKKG
Chain of ZFP SBS#685 (synthetic) (chain, as listed by the source): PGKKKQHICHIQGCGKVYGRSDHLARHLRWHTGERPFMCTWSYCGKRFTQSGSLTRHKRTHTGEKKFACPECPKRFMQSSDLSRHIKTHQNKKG
Chain of ZFP SBS#684 (synthetic) (chain, as listed by the source): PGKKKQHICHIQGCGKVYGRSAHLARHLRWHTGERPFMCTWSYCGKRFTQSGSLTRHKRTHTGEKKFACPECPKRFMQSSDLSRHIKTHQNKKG
Chain of ZFP SBS#798 (P08047 other isoform, or with tags, fused parts or gaps): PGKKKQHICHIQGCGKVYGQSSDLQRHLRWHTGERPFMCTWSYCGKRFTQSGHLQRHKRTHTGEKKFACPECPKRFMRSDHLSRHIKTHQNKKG
Chain of ZFP SBS#799 (synthetic) (chain, as listed by the source): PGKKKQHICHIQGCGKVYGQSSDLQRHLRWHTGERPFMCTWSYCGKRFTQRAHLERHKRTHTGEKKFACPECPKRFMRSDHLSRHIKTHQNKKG
Chain of ZFP SBS#681 (synthetic) (chain, as listed by the source): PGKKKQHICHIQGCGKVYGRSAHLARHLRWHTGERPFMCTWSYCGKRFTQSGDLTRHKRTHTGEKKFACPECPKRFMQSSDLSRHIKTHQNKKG
Chain of ZFP SBS#830 (synthetic) (chain, as listed by the source): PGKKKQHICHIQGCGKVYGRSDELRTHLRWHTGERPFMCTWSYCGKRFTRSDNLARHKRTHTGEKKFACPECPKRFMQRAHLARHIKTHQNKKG
Chain of ZFP SBS#763 (synthetic) (chain, as listed by the source): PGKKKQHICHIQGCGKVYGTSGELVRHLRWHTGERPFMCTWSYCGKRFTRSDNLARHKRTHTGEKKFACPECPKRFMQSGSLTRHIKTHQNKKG
Chain of ZFP SBS#768 (synthetic) (chain, as listed by the source): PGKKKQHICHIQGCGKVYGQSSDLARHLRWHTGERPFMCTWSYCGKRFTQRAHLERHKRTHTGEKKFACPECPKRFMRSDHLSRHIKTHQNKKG
Chain of ZFP SBS#844 (synthetic) (chain, as listed by the source): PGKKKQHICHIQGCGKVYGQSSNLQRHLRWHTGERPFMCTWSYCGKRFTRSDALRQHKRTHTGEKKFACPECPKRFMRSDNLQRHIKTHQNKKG
Chain of ZFP SBS#767 (P08047 other isoform, or with tags, fused parts or gaps): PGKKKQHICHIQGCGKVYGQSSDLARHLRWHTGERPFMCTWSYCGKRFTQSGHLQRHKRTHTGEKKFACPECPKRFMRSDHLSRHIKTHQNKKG
Chain of ZFP SBS#845 (synthetic) (chain, as listed by the source): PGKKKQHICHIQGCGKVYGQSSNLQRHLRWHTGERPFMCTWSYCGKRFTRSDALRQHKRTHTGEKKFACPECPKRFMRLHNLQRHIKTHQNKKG

B1: GCAGCGGTAG (dsDNA)
DNA 1: GCAGCGGTAG
DNA 2: CTACCGCTGC
Kd [1]: 1250 nM
Kd [2]: 258 nM
Kd [3]: 500 nM
Kd [4]: 265 nM

B2: GGGGCCCTGG (dsDNA)
DNA 1: GGGGCCCTGG
DNA 2: CCAGGGCCCC
Kd [5]: 29.1 nM
Kd [6]: 222 nM
Kd [7]: 300 nM

B3: GAGTGTGAGG (dsDNA)
DNA 1: GAGTGTGAGG
DNA 2: CCTCACACTC
Kd [8]: 300 nM
Kd [9]: 625 nM
Kd [10]: 625 nM

B4: GGAGAGTCGG (dsDNA)
DNA 1: GGAGAGTCGG
DNA 2: CCGACTCTCC
Kd [11]: 683 nM
Kd [12]: 700 nM

B5: GGGGGAGCTG (dsDNA)
DNA 1: GGGGGAGCTG
DNA 2: CAGCTCCCCC
Kd [13]: 2000 nM
Kd [14]: 1.85 nM
Kd [15]: 335 nM
Kd [16]: 3 nM

B6: GCAGAGGCTC (dsDNA)
DNA 1: GCAGAGGCTC
DNA 2: GAGCCTCTGC
Kd [17]: 275 nM

B7: GCTGCAGGAG (dsDNA)
DNA 1: GCTGCAGGAG
DNA 2: CTCCTGCAGC
Kd [18]: 3000 nM
Kd [19]: 500 nM
Kd [20]: 850 nM
Kd [21]: 150 nM
Kd [22]: 90 nM

B8: GACTAGGACC (dsDNA)
DNA 1: GACTAGGACC
DNA 2: GGTCCTAGTC
Kd [23]: 408 nM
Kd [24]: 136 nM
Kd [25]: 186 nM

B9: GCAGAGGCTG (dsDNA)
DNA 1: GCAGAGGCTG
DNA 2: CAGCCTCTGC
Kd [26]: 17.5 nM
Kd [27]: 255 nM

B10: GAGATGGATC (dsDNA)
DNA 1: GAGATGGATC
DNA 2: GATCCATCTC
Kd [28]: 444 nM
Kd [29]: 890 nM
Kd [30]: 74 nM
Kd [31]: 112 nM

B11: GGATGGGGG (dsDNA)
DNA 1: GGATGGGGG
DNA 2: CCCCCATCC
Kd [32]: 0.75 nM

B12: GCCGAGGCCG (dsDNA)
DNA 1: GCCGAGGCCG
DNA 2: CGGCCTCGGC
Kd [33]: 262 nM
Kd [34]: 262 nM

B13: TTGGCAGCCT (dsDNA)
DNA 1: TTGGCAGCCT
DNA 2: AGGCTGCCAA
Kd [35]: 400 nM
Kd [36]: 325 nM
